From publication PMC5696371, “The HSF1–PARP13–PARP1 complex facilitates DNA repair and promotes mammary tumorigenesis” (Nature Communications, 2017)

Biological target: T1, hPARP13-His (human, UniProt Q7Z2W4 1-902)
T1 construct: human PARP13 cDNA in pET21a, His tag at the C terminus; also called His-tagged hPARP13; source: E. coli, purified (Ni Sepharose 6 Fast Flow); not shown: His, C-terminal, kept
Assay: pull-down; purified GST fusion proteins and purified hPARP13-His mixed in NT buffer (50 mM Tris-HCl pH 7.5, 150 mM NaCl, 1 mM EDTA, 0.5% NP40) for 1 h at 4 °C, then glutathione-sepharose beads 2 h at 4 °C; immunoblotting
Conditions: both partners purified

T1 sequence (Q7Z2W4 whole entry): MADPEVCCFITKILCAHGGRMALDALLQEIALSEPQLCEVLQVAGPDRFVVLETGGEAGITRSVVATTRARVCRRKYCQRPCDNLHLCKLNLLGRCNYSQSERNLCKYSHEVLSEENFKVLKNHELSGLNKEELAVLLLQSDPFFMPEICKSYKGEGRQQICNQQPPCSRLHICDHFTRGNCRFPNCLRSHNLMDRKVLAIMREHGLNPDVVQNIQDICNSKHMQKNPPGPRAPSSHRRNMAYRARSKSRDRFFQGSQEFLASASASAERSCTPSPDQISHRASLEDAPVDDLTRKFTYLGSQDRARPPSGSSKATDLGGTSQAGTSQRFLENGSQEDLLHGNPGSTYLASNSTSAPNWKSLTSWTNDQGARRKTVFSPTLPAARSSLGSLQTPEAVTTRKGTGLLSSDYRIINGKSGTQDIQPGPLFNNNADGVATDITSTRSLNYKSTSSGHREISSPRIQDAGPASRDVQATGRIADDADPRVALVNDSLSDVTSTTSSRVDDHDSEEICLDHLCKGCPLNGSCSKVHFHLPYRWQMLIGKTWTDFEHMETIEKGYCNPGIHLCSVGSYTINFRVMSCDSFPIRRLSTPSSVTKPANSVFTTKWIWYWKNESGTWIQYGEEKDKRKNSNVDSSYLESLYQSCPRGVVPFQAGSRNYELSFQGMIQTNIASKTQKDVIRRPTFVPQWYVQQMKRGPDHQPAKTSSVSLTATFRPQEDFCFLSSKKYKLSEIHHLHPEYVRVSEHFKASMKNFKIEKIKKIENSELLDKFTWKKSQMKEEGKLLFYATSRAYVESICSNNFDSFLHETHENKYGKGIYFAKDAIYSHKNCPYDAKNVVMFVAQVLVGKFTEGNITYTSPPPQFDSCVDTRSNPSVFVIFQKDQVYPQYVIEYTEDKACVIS

binding result: binds
B1: GST-hHSF1 (natural protein, human, UniProt Q00613 1-529, looked up)
chain: MDLPVGPGAAGPSNVPAFLTKLWTLVSDPDTDALICWSPSGNSFHVFDQGQFAKEVLPKYFKHNNMASFVRQLNMYGFRKVVHIEQGGLVKPERDDTEFQHPCFLRGQEQLLENIKRKVTSVSTLKSEDIKIRQDSVTKLLTDVQLMKGKQECMDSKLLAMKHENEALWREVASLRQKHAQQQKVVNKLIQFLISLVQSNRILGVKRKIPLMLNDSGSAHSMPKYSRQFSLEHVHGSGPYSAPSPAYSSSSLYAPDAVASSGPIISDITELAPASPMASPGGSIDERPLSSSPLVRVKEEPPSPPQSPRVEEASPGRPSSVDTLLSPTALIDSILRESEPAPASVTALTDARGHTDTEGRPPSPPPTSTPEKCLSVACLDKNELSDHLDAMDSNLDNLQTMLSSHGFSVDTSALLDLFSPSVTVPDMSLPDLDSSLASIQELLSPQEPPRPPEAENSSPDSGKQLVHYTAQPLFLLDPGSVDTGSNDLPVLFELGEGSYFSEGDGFAEDPTISLLTGSEPPKAKDPTVS
notes: human HSF1 fused to GST; the legend marks 'full-length GST-fusion proteins'; source: E. coli, purified (Glutathione Sepharose 4B)
